T1: histidine kinase EnvZ from Escherichia coli (Escherichia coli) (UniProt P0AEJ4)
T1 sequence (P0AEJ4 whole entry, looked up): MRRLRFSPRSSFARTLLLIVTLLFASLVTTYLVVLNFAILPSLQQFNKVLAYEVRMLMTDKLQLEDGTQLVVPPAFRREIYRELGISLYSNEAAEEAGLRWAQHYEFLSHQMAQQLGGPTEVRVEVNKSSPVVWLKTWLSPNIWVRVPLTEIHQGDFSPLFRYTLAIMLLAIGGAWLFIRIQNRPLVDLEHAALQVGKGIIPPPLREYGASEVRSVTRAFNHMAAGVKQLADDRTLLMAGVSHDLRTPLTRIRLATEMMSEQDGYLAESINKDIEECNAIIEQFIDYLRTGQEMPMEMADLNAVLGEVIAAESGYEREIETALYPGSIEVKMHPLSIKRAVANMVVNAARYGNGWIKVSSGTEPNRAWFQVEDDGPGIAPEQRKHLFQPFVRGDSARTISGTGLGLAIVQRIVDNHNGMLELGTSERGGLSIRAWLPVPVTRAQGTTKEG


Target: T1, histidine kinase EnvZ from Escherichia coli (Escherichia coli)

Binder	in vitro phosphotransfer rate from EnvZ, ratio v (mutant) / v (w.t.)
Spo0F M55L (natural protein) MMNEKILIVDDQYGIRILLNEVFNKEGYQTFQAANGLQALDIVTKERPDLVLLDLKIPGMDGIEILKRMKVIDENIRVIIMTAYGELDMIQESKELGALTHFAKPFDIDEIRDAVKKYLPLKSN	1
Spo0F I108L (natural protein) MMNEKILIVDDQYGIRILLNEVFNKEGYQTFQAANGLQALDIVTKERPDLVLLDMKIPGMDGIEILKRMKVIDENIRVIIMTAYGELDMIQESKELGALTHFAKPFDLDEIRDAVKKYLPLKSN	1
